Reference: US20140179604A1 (U S A REPRESENTED BY THE DEPARTMENT OF VETERANS AFFAIRS, published 2014)
Non-standard residues stand in square brackets, D forms with d. No end group written: not given here. *: point of attachment. Desaminotyrosyl = O=C(CCc1ccc(O)cc1)*; NMeY = CN[C@@H](Cc1ccc(O)cc1)C(=O)O; Agmatine = N=C(N)NCCCCN*; Nle = CCCC[C@H](N)C(=O)O; Orn = NCCC[C@H](N)C(=O)O; Abu = CC[C@H](N)C(=O)O; Aoc = NCCCCCCCC(=O)O; Ava = NCCCCC(=O)O

T1: GHRH receptor (membrane receptors of human anterior pituitary cells) (human, UniProt Q02643 23-423)
T1 construct: whole, on cells; Native receptor in a membrane fraction of purchased normal human pituitaries, not intact cells; also called hGHRH receptor; human pituitary membrane homogenates
T1 sequence (looked up): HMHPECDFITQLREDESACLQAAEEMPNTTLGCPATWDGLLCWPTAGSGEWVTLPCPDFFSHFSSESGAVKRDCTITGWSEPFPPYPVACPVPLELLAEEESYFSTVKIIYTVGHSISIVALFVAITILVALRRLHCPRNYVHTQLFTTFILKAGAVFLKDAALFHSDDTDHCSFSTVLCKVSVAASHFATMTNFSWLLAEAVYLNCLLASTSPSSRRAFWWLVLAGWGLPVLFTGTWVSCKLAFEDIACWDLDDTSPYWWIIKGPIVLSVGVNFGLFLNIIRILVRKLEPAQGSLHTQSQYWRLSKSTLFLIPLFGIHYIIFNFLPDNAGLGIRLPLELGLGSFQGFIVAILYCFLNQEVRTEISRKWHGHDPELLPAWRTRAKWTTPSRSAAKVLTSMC


What was measured:
[1] = target: T1, GHRH receptor (membrane receptors of …); test: competition with 125I-JV-1-42, human pituitary membranes
Text: Normal human pituitaries were purchased from the National Hormone and Peptide Program (A. F. Parlow, Los Angeles, County Harbor-UCLA Medical Center, Torrance, Calif.).

[2] = target: T1, GHRH receptor (membrane receptors of …); test: competition with 125I-[His1,Nle27]hGHRH(1-32)NH2, human pituitary membranes
Text: Normal human pituitary was purchased from the National Hormone and Peptide Program (UCLA Medical Center, Torrance, Calif.).

Binder | IC50 [1] [nM] | Relative affinity (Binding potency) vs JI-38 [1] [JI-38 = 1] | IC50 [2] [nM] | Relative affinity (Binding potency) compared to JI-38 [2] [JI-38 = 1] | Relative affinity (Binding potency) compared to hGHRH(1-29) [2]
[NMeY][dA]DAIFTNSYR[Orn]VL[Abu]QLSAR[Orn]LLQDI[Nle]DR[Aoc]-NH2 (N-terminus assumed; SMILES CCCC[C@H](NC(=O)[C@@H](NC(=O)[C@H](CC(=O)O)NC(=O)[C@H](CCC(N)=O)NC(=O)[C@H](CC(C)C)NC(=O)[C@H](CC(C)C)NC(=O)[C@H](CCCN)NC(=O)[C@H](CCCNC(=N)N)NC(=O)[C@H](C)NC(=O)[C@H](CO)NC(=O)[C@H](CC(C)C)NC(=O)[C@H](CCC(N)=O)NC(=O)[C@H](CC)NC(=O)[C@H](CC(C)C)NC(=O)[C@@H](NC(=O)[C@H](CCCN)NC(=O)[C@H](CCCNC(=N)N)NC(=O)[C@H](Cc1ccc(O)cc1)NC(=O)[C@H](CO)NC(=O)[C@H](CC(N)=O)NC(=O)[C@@H](NC(=O)[C@H](Cc1ccccc1)NC(=O)[C@@H](NC(=O)[C@H](C)NC(=O)[C@H](CC(=O)O)NC(=O)[C@@H](C)NC(=O)[C@H](Cc1ccc(O)cc1)NC)[C@@H](C)CC)[C@@H](C)O)C(C)C)[C@@H](C)CC)C(=O)N[C@@H](CC(=O)O)C(=O)N[C@@H](CCCNC(=N)N)C(=O)NCCCCCCCC(N)=O, also called Peptide 21303) [P-21303 [N-Me-Tyr^1, D-Ala^2, Orn^12, Abu^15, Orn^21, Nle^27, Asp^28, Amc^30]hGHRH(1-30)NH2] | 1.87 | 2.32 |  |  | 
[Desaminotyrosyl][dA]DAIFTNSYR[Orn]VL[Abu]QLSAR[Orn]LLQDI[Nle]DR[Aoc]-NH2 (SMILES CCCC[C@H](NC(=O)[C@@H](NC(=O)[C@H](CC(=O)O)NC(=O)[C@H](CCC(N)=O)NC(=O)[C@H](CC(C)C)NC(=O)[C@H](CC(C)C)NC(=O)[C@H](CCCN)NC(=O)[C@H](CCCNC(=N)N)NC(=O)[C@H](C)NC(=O)[C@H](CO)NC(=O)[C@H](CC(C)C)NC(=O)[C@H](CCC(N)=O)NC(=O)[C@H](CC)NC(=O)[C@H](CC(C)C)NC(=O)[C@@H](NC(=O)[C@H](CCCN)NC(=O)[C@H](CCCNC(=N)N)NC(=O)[C@H](Cc1ccc(O)cc1)NC(=O)[C@H](CO)NC(=O)[C@H](CC(N)=O)NC(=O)[C@@H](NC(=O)[C@H](Cc1ccccc1)NC(=O)[C@@H](NC(=O)[C@H](C)NC(=O)[C@H](CC(=O)O)NC(=O)[C@@H](C)NC(=O)CCc1ccc(O)cc1)[C@@H](C)CC)[C@@H](C)O)C(C)C)[C@@H](C)CC)C(=O)N[C@@H](CC(=O)O)C(=O)N[C@@H](CCCNC(=N)N)C(=O)NCCCCCCCC(N)=O, also called Peptide 21300) [P-21300 [Dat^1, D-Ala^2, Orn^12, Abu^15, Orn^21, Nle^27, Asp^28, Amc^30]hGHRH(1-30)NH2] | 3.61 | 1.2 |  |  | 
[Desaminotyrosyl][dA]DAIFTQSYR[Orn]VL[Abu]QLSAR[Orn]LLQDI[Nle]D[dR]-NHMe (SMILES CCCC[C@H](NC(=O)[C@@H](NC(=O)[C@H](CC(=O)O)NC(=O)[C@H](CCC(N)=O)NC(=O)[C@H](CC(C)C)NC(=O)[C@H](CC(C)C)NC(=O)[C@H](CCCN)NC(=O)[C@H](CCCNC(=N)N)NC(=O)[C@H](C)NC(=O)[C@H](CO)NC(=O)[C@H](CC(C)C)NC(=O)[C@H](CCC(N)=O)NC(=O)[C@H](CC)NC(=O)[C@H](CC(C)C)NC(=O)[C@@H](NC(=O)[C@H](CCCN)NC(=O)[C@H](CCCNC(=N)N)NC(=O)[C@H](Cc1ccc(O)cc1)NC(=O)[C@H](CO)NC(=O)[C@H](CCC(N)=O)NC(=O)[C@@H](NC(=O)[C@H](Cc1ccccc1)NC(=O)[C@@H](NC(=O)[C@H](C)NC(=O)[C@H](CC(=O)O)NC(=O)[C@@H](C)NC(=O)CCc1ccc(O)cc1)[C@@H](C)CC)[C@@H](C)O)C(C)C)[C@@H](C)CC)C(=O)N[C@@H](CC(=O)O)C(=O)N[C@H](CCCNC(=N)N)C(=O)NC, also called MR-401) [P-27401 [Dat^1, D-Ala^2, Gln^8, Orn^12, Abu^15, Orn^21, Nle^27, Asp^28, D-Arg^29]hGHRH(1-29)NH-CH3] | 2.74 | 1.59 | 2.6 | 1.05 | 2.94 hGHRH(1-29)NH2 = 1
[NMeY][dA]DAIFTNSYR[Orn]VL[Abu]QLSAR[Orn]LLQDI[Nle]D[Agmatine] (also called Peptide 20367) [P-20367 [N-Me-Tyr^1, D-Ala^2, Orn^12, Abu^15, Orn^21, Nle^27, Asp^28, Agm^29]hGHRH(1-29)NH2] | 1.7 | 2.56 | 1.09 | 2.51 | 7.01 hGHRH(1-29)NH2 = 1
[NMeY][dA]DAIFTTSYR[Orn]VL[Abu]QLSAR[Orn]LLQDI[Nle]DR-NHMe (also called MR-410; Peptide 27410) [P-27410 [N-Me-Tyr^1, D-Ala^2, Thr^8, Orn^12, Abu^15, Orn^21, Nle^27, Asp^28]hGHRH(1-29)NH-CH3] | 0.83 | 5.24 | 1.28 | 2.14 | 5.98 hGHRH(1-29)NH2 = 1
[NMeY][dA]DAIFTNSYR[Orn]VL[Abu]QLSAR[Orn]LLQDI[Nle]DR-NHEt (also called MR-421; Peptide 28421) [P-28421 [N-Me-Tyr^1, D-Ala^2, Orn^12, Abu^15, Orn^21, Nle^27, Asp^28]hGHRH(1-29)NH-CH2-CH3] | 1.47 | 2.96 | 3.05 | 0.9 | 2.5 hGHRH(1-29)NH2 = 1
[NMeY][dA]DAIFTNSYR[Orn]VL[Abu]QLSAR[Orn]LLQDI[Nle]DR-NHMe (also called MR-409; Peptide 27409) [P-27409 [N-Me-Tyr^1, D-Ala^2, Orn^12, Abu^15, Orn^21, Nle^27, Asp^28]hGHRH(1-29)NH-CH3] | 1.06 | 4.1 | 1.01 | 2.71 | 7.57 hGHRH(1-29)NH2 = 1
[NMeY][dA]DAIFTQSYR[Orn]VL[Abu]QLSAR[Orn]LLQDI[Nle]DR[Ava]-NH2 (N-terminus assumed; SMILES CCCC[C@H](NC(=O)[C@@H](NC(=O)[C@H](CC(=O)O)NC(=O)[C@H](CCC(N)=O)NC(=O)[C@H](CC(C)C)NC(=O)[C@H](CC(C)C)NC(=O)[C@H](CCCN)NC(=O)[C@H](CCCNC(=N)N)NC(=O)[C@H](C)NC(=O)[C@H](CO)NC(=O)[C@H](CC(C)C)NC(=O)[C@H](CCC(N)=O)NC(=O)[C@H](CC)NC(=O)[C@H](CC(C)C)NC(=O)[C@@H](NC(=O)[C@H](CCCN)NC(=O)[C@H](CCCNC(=N)N)NC(=O)[C@H](Cc1ccc(O)cc1)NC(=O)[C@H](CO)NC(=O)[C@H](CCC(N)=O)NC(=O)[C@@H](NC(=O)[C@H](Cc1ccccc1)NC(=O)[C@@H](NC(=O)[C@H](C)NC(=O)[C@H](CC(=O)O)NC(=O)[C@@H](C)NC(=O)[C@H](Cc1ccc(O)cc1)NC)[C@@H](C)CC)[C@@H](C)O)C(C)C)[C@@H](C)CC)C(=O)N[C@@H](CC(=O)O)C(=O)N[C@@H](CCCNC(=N)N)C(=O)NCCCCC(N)=O, also called MR-326; Peptide 22326) [P-22326 [N-Me-Tyr^1, D-Ala^2, Gln^8, Orn^12, Abu^15, Orn^21, Nle^27, Asp^28, Apa^30]hGHRH(1-30)NH2] | 0.71 | 6.12 | 0.98 | 2.8 | 7.81 hGHRH(1-29)NH2 = 1
[NMeY][dA]DAIFTQSYR[Orn]VL[Abu]QLSAR[Orn]LLQDI[Nle]DR-NHMe [P-27403 [N-Me-Tyr^1, D-Ala^2, Gln^8, Orn^12, Abu^15, Orn^21, Nle^27, Asp^28]hGHRH(1-29)NH-CH3] | 0.16 | 27.2 | 0.74 | 3.69 | 10.3 hGHRH(1-29)NH2 = 1
[NMeY][dA]DAIFTQSYR[Orn]VL[Abu]QLSAR[Orn]LLQDI[Nle]DR-NHEt (also called MR-420; Peptide 28420) [P-28420 [N-Me-Tyr^1, D-Ala^2, Gln^8, Orn^12, Abu^15, Orn^21, Nle^27, Asp^28]hGHRH(1-29)NH-CH2-CH3] | 0.52 | 8.37 | 2.7 | 1.01 | 2.83 hGHRH(1-29)NH2 = 1
[Desaminotyrosyl][dA]DAIFTQSYR[Orn]VL[Abu]QLSAR[Orn]LLQDI[Nle]DR-NHMe (SMILES CCCC[C@H](NC(=O)[C@@H](NC(=O)[C@H](CC(=O)O)NC(=O)[C@H](CCC(N)=O)NC(=O)[C@H](CC(C)C)NC(=O)[C@H](CC(C)C)NC(=O)[C@H](CCCN)NC(=O)[C@H](CCCNC(=N)N)NC(=O)[C@H](C)NC(=O)[C@H](CO)NC(=O)[C@H](CC(C)C)NC(=O)[C@H](CCC(N)=O)NC(=O)[C@H](CC)NC(=O)[C@H](CC(C)C)NC(=O)[C@@H](NC(=O)[C@H](CCCN)NC(=O)[C@H](CCCNC(=N)N)NC(=O)[C@H](Cc1ccc(O)cc1)NC(=O)[C@H](CO)NC(=O)[C@H](CCC(N)=O)NC(=O)[C@@H](NC(=O)[C@H](Cc1ccccc1)NC(=O)[C@@H](NC(=O)[C@H](C)NC(=O)[C@H](CC(=O)O)NC(=O)[C@@H](C)NC(=O)CCc1ccc(O)cc1)[C@@H](C)CC)[C@@H](C)O)C(C)C)[C@@H](C)CC)C(=O)N[C@@H](CC(=O)O)C(=O)N[C@@H](CCCNC(=N)N)C(=O)NC, also called MR-408; MR408) [P-27408 [Dat^1, D-Ala^2, Gln^8, Orn^12, Abu^15, Orn^21, Nle^27, Asp^28]hGHRH(1-29)NH-CH3] | 0.55 | 7.91 | 6.32 | 0.53 | 1.21 hGHRH(1-29)NH2 = 1
